Test results reported in US20200231654A1 (published 2020).
Where two headings read alike, the source gives them in different places.

B1: M91005 (designed binder)
chain: GSGMKETAAAKFERQHMDSPDLGTDDDDKAMADIGSANSDPQFGLFSKYRTPNCRKRGGPSCQMSYNPVCGSDMSTYANECTLCMKIREGGHNIKIIRNGPCGASAAA
B2: M91002_G3 (designed binder)
chain: GSGMKETAAAKFERQHMDSPDLGTDDDDKAMAENLYFQGDPQFGLFSKYRTPNCRTGRGPACQMGFQPVCGSDMSTYANECTLCMKIREGGHNIKIIRNGPCGGG
B3: M91002_G2 (designed binder)
chain: GSGMKETAAAKFERQHMDSPDLGTDDDDKAMAENLYFQGDPQFGLFSKYRTPNCRTGRGPACQMGFQPVCGSDMSTYANECTLCMKIREGGHNIKIIRNGPCGG
B4: M91005_D1G-Fc-01 (Fc fusion)
chain: GSGMKETAAAKFERQHMDSPDLGTDDDDKAMADIGSANSGPQFGLFSKYRTPNCRKRGGPSCQMSYNPVCGSDMSTYANECTLCMKIREGGHNIKIIRNGPCGASAAAGGGGSDKTHTCPPCPAPELLGGPSVFLFPPKPKDTLMISRTPEVTCVVVDVSHEPEVKFNWYVDGVEVHNAKTKPREEQYNSTYRVVSVLTVLHQDWLNGKEYCKVSNKALPAPIEKTISKAKGQPREPQVYTLPPSREEMTKNQVSLTCLVGFYPSDIAVEWESNGQPENNYKTTPPVLDSDGSFFLYSKLTVDKSRWQQNVFSCSVMHEALHNHYTQKSLSLSPGK
B5: M91011 (designed binder)
chain: GSGMKETAAAKFERQHMDSPDLGTDDDDKAMADIGSANSDPQFGLFSKYRTPNCMMYKYAQCSHKSQPVCGSDMSTYANECTLCMKIREGGHNIKIIRNGPCGASAAA
B6: M91002_G0 (designed binder)
chain: GSGMKETAAAKFERQHMDSPDLGTDDDDKAMAENLYFQGDPQFGLFSKYRTPNCRTGRGPACQMGFQPVCGSDMSTYANECTLCMKIREGGHNIKIIRNGPC

Assays:
[1] = target: P196T; assay: substrate peptide degradation inhibition
[2] = target: T109F; assay: substrate peptide degradation inhibition
[3] = target: P180A; assay: substrate peptide degradation inhibition
[4] = target: I198V; assay: substrate peptide degradation inhibition
[5] = target: E111P; assay: substrate peptide degradation inhibition
[6] = target: Q108N; assay: substrate peptide degradation inhibition
[7] = target: L114P; assay: substrate peptide degradation inhibition
[8] = target: G112R; assay: substrate peptide degradation inhibition
[9] = target: G186A; assay: substrate peptide degradation inhibition
[10] = target: D113K; assay: substrate peptide degradation inhibition
[11] = target: S413Q; assay: substrate peptide enzyme inhibition
[12] = target: L418A; assay: substrate peptide enzyme inhibition
[13] = target: P421A; assay: substrate peptide enzyme inhibition
[14] = target: D410E; assay: substrate peptide enzyme inhibition
[15] = target: T1, active hMMP-9(cat)_His6 (UniProt P14780 107-449); assay: enzyme inhibition; substrate peptide
[16] = target: T1, active hMMP-9(cat)_His6; assay: enzyme inhibition; substrate peptide; remark: listed apart in the source

T1 sequence (P14780 107-449): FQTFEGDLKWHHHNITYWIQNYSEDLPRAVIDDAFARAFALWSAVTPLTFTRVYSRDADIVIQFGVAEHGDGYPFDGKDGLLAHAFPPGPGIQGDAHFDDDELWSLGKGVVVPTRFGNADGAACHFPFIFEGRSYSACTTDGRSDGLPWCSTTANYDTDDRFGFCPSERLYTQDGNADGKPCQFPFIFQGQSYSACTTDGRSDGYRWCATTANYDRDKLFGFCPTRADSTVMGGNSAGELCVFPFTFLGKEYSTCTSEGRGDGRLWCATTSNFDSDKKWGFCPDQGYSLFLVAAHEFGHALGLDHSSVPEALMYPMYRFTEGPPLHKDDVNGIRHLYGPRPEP

Binder | IC50 [2] | IC50 [3] | IC50 [4] | IC50 [5] | IC50 [6] | IC50 [8] | IC50 [9] | IC50 [10] | IC50 [11] | IC50 [13] | IC50 [15] | further results
B1 | 15 nM | 25 nM | 16 nM | 31 nM | 20 nM | 19 nM | 15 nM | 21 nM | 30 nM | 23 nM | – | IC50 [1]: 18 nM; IC50 [7]: 22 nM; IC50 [12]: 9.3 nM; IC50 [14]: 22 nM
B2 | – | – | – | – | – | – | – | – | – | – | 3.5 nM | –
B3 | – | – | – | – | – | – | – | – | – | – | 3.5 nM | –
B4 | – | – | – | – | – | – | – | – | – | – | – | IC50 [16]: 4.3 nM
B5 | 15 nM | 24 nM | 16 nM | 23 nM | 21 nM | 15 nM | 16 nM | 21 nM | 28 nM | 8.7 nM | – | –
B6 | – | – | – | – | – | – | – | – | – | – | 3.6 nM | –
